Source: patent US20230287363, “DNA POLYMERASE, APTAMER, WARM-START DNA POLYMERASE AND PREPARATION METHODS AND APPLICATION THEREOF” (Sun Yat-Sen University, published 2023)

T1: RHAU23-Bst (DHX36 RHAU23 peptide fused to N-terminus of Bst-LF) (Homo sapiens / Geobacillus …)
T1 chain: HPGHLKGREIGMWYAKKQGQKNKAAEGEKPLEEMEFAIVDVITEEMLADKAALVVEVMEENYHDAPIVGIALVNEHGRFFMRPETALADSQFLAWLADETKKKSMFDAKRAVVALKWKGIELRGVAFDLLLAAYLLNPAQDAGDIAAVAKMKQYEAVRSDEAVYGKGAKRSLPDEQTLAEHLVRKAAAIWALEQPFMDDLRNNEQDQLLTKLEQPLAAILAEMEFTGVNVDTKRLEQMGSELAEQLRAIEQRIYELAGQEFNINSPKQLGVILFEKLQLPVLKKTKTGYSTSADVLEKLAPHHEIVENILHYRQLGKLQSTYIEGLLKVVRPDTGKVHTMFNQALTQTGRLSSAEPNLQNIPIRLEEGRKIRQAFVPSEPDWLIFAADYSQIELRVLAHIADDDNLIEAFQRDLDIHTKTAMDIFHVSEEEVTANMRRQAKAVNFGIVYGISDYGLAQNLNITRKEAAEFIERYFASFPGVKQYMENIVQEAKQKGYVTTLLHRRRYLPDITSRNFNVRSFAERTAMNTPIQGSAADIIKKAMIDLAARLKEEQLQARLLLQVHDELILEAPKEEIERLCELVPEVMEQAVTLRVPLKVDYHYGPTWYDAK

B1: PDGFRB-Fd-G4 (structured_DNA)
DNA 1: CCTGAAGCAGACAGCTAGTGAATTCGGGAGGGCGGCGGGGCAGGGTACTTGCGTATAACTGTTCCATAGT
DNA 2: ACTATGGAACAGTTATACGCAAGTATTTTTTTTTTTTTTTTTTTTTGAATTCACTAGCTGTCTGCTTCAGG
B2: T4B1-Fd-G4 (structured_DNA)
DNA 1: CCTGAAGCAGACAGCTAGTGAATTCGTTTTGGTGGGTGGGTGGGTACTTGCGTATAACTGTTCCATAGT
DNA 2: B1 DNA 2

Target: T1, RHAU23-Bst (DHX36 RHAU23 peptide fused …)
Assay: EMSA; Kd stated only as nM level; K+ buffer, 4 C
Details: tags: His-tag, pCold-I, E. coli BL21; label: 5'-FAM (EMSA); bulged G4 with flanking dsDNA
Procedure: Oligonucleotides were purchased from Sangon Biotech Co., Ltd (China). Double-stranded DNAs (dsDNA) were paired from the complementary single-stranded DNA (ssDNA) by denaturing at 95° C. for 5 min and subsequently cooling to 25° C. in a buffer containing 10 mM Tris-HCl (pH 7.4), 75 mM KCl and 0.5 mM EDTA. 20 nM 5′-FAM-labeled aptamer DNA (Table 1) was dissolved in a first buffer, denatured at 95° C. for 5 min and subsequently cooled to 25° C. at a rate of 0.1° C./s; the first buffer contained 10 mM Tris-HCl (pH 7.4), 75 mM KCl, 0.5 mM EDTA, and 0.2 mg/ml BSA. Then each aptamer DNA and the specified concentration of DNA polymerase fused to G-quadruplex binding peptide were added into a second buffer, to bind at 4° C. for 1 hour, to form a DNA-protein complex; the second buffer contained 20 mM Tris-HCl (pH 8.8), 10 mM (NH₄)₂SO₄, 50 mM KCl, 2-8 mM MgSO₄, and 0.1% Tween-20.
The binding of aptamer to DNA polymerase was detected by electrophoretic mobility shift assay. Specifically, DNA-protein complex was electrophoresed on 8% or 12% non-denatured polyacrylamide gel containing 75 mM KCl at 4° C. for 2 h in 1×TBE buffer containing 75 mM KCl. The DNA-protein complex was photographed by the ChemiDoc MP imaging system (Bio-Rad) and digitized by the Image Quant 5.2 software.

Binder | binding result
B1 | binds
B2 | binds
